{
  "source": "paper PMC6949303",
  "key": {"[1]": {"target": "Human monoclonal Sus11-IgE (human)", "experiment": "SPR; Biacore X100, CM5 chip, HBS-EP+, 10 μl/min; anti-IgE Le27 immobilised (3000 RU), 30 nM Sus11-IgE captured (~100 RU); 1.56–25 nM antibodies/fragments injected 120 s, dissociation 240 s; 1:1 langmuir fit"}, "[2]": {"target": "Biotinylated JW8-IgE (human)", "experiment": "ELISA; FcεRIα immobilised at 30 nM; biotinylated JW8-IgE titrated (60–0.001 nM) or 0.78 nM pre-incubated 30 min with anti-IgE antibodies (0.0078–600 nM); streptavidin-HRP"}},
  "data": [
    {"binder": "Ligelizumab IgG (antibody, V domains shown) VH: QVQLVQSGAEVMKPGSSVKVSCKASGYTFSWYWLEWVRQAPGHGLEWMGEIDPGTFTTNYNEKFKARVTFTADTSTSTAYMELSSLRSEDTAVYYCARFSHFSGSNYDYFDYWGQGTLVTVSS VL: EIVMTQSPATLSVSPGERATLSCRASQSIGTNIHWYQQKPGQAPRLLIYYASESISGIPARFSGSGSGTEFTLTISSLQSEDFAVYYCQQSWSWPTTFGGGTKVEIK", "values": [
      {"measurement": "Kd", "setting": "[1]", "value": 0.0178, "unit": "nM"},
      {"measurement": "koff", "setting": "[1]", "value": "3.3e-05", "unit": "s⁻¹"},
      {"measurement": "kon", "setting": "[1]", "value": "1.8e+06", "unit": "M⁻¹ s⁻¹"},
      {"measurement": "fold higher potency than omalizumab in inhibiting IgE binding to FcεRIα", "setting": "[2]", "value": 20, "unit": "fold"}
    ]},
    {"binder": "Ligelizumab Fab (Fab, V domains shown) VH: QVQLVQSGAEVMKPGSSVKVSCKASGYTFSWYWLEWVRQAPGHGLEWMGEIDPGTFTTNYNEKFKARVTFTADTSTSTAYMELSSLRSEDTAVYYCARFSHFSGSNYDYFDYWGQGTLVTVSS VL: EIVMTQSPATLSVSPGERATLSCRASQSIGTNIHWYQQKPGQAPRLLIYYASESISGIPARFSGSGSGTEFTLTISSLQSEDFAVYYCQQSWSWPTTFGGGTKVEIK", "values": [
      {"measurement": "Kd", "setting": "[1]", "value": 0.035, "unit": "nM"},
      {"measurement": "koff", "setting": "[1]", "value": 0.00032, "unit": "s⁻¹"},
      {"measurement": "kon", "setting": "[1]", "value": "9.2e+06", "unit": "M⁻¹ s⁻¹"}
    ]},
    {"binder": "Ligelizumab F(ab′)2 (protein) VH: QVQLVQSGAEVMKPGSSVKVSCKASGYTFSWYWLEWVRQAPGHGLEWMGEIDPGTFTTNYNEKFKARVTFTADTSTSTAYMELSSLRSEDTAVYYCARFSHFSGSNYDYFDYWGQGTLVTVSS VL: EIVMTQSPATLSVSPGERATLSCRASQSIGTNIHWYQQKPGQAPRLLIYYASESISGIPARFSGSGSGTEFTLTISSLQSEDFAVYYCQQSWSWPTTFGGGTKVEIK", "values": [
      {"measurement": "Kd", "setting": "[1]", "value": 0.0121, "unit": "nM"},
      {"measurement": "koff", "setting": "[1]", "value": "5.1e-05", "unit": "s⁻¹"},
      {"measurement": "kon", "setting": "[1]", "value": "4.2e+06", "unit": "M⁻¹ s⁻¹"}
    ]}
  ]
}
